Laboratory results: publication PMC3305813 (Neuron, 2012)

T1: recombinant CYSL-1 (C. elegans, UniProt Q93244 1-341)
T1 sequence (looked up): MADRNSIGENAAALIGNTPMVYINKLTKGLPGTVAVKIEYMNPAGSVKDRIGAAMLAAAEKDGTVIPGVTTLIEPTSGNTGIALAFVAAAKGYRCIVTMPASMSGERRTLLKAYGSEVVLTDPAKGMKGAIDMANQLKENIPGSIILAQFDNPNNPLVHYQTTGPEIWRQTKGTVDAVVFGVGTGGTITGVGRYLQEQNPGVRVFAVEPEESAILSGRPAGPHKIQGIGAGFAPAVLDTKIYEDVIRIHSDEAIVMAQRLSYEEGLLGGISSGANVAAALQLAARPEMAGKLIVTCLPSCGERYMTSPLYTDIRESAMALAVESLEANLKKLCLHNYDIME


How the values were obtained:
CYSL-1 = CYSL-1 (Caenorhabditis elegans, UniProt Q93244, R259K); test: O-acetylserine sulfhydrylase assay; assay type: biochemical; conditions: co-substrate sulfide
Sequence of CYSL-1 (Q93244 whole entry R259K): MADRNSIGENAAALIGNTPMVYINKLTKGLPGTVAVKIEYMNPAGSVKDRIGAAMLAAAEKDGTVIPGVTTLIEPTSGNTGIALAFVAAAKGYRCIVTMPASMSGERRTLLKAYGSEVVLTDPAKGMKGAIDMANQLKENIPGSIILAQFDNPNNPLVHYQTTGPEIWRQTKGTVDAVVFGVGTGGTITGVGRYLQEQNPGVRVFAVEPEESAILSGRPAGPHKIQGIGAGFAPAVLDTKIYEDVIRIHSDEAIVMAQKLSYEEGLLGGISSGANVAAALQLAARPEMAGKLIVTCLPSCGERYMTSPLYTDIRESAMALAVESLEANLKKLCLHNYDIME

recombinant CYSL-1 = target: T1, recombinant CYSL-1; test: other fluorescence titration

Molecule	O-acetylserine sulfhydrylase assay (CYSL-1)	binding result (recombinant CYSL-1)
CC(=O)OC[C@H](N)C(=O)O [OAS]	exhibited levels of OAS sulfhydrylase activity similar to that of wild-type CYSL-1	–
GLPPPPSTNPEYYI (peptide, UniProt G5EBV0 710-723, looked up) [EGL-9 C-terminal peptide, last 14 residues]	–	binds
PPSTNPEYYI (peptide, UniProt G5EBV0 714-723, looked up) [EGL-9 C-terminal peptide, last 10 residues]	–	binds
